Results published in patent publication US12679878B2, “CRF2 receptor agonists and their use in therapy” (SANOFI, priority 2020, dated 2026).
Starred links: 1 amine or outer side, 2 acyl side, 3 side chain; linkers in the order of their positions; H or OH if unused. Non-standard residues stand in square brackets, D forms with d. Groups on a side chain read outwards from the residue. No end group written: not given here. *: point of attachment. C18 diacid = O=C(O)CCCCCCCCCCCCCCCCC(=O)*; γGlu = O=C(O)[C@H](CCC(=O)[*:2])N[*:1]; Palmitoyl = CCCCCCCCCCCCCCCC(=O)*; AEEA = NCCOCCOCC(=O)O; Aib = CC(C)(N)C(=O)O

T1: CRF1R receptor (anti-target) (UniProt P34998 24-415, limits assumed)
T1 sequence (looked up): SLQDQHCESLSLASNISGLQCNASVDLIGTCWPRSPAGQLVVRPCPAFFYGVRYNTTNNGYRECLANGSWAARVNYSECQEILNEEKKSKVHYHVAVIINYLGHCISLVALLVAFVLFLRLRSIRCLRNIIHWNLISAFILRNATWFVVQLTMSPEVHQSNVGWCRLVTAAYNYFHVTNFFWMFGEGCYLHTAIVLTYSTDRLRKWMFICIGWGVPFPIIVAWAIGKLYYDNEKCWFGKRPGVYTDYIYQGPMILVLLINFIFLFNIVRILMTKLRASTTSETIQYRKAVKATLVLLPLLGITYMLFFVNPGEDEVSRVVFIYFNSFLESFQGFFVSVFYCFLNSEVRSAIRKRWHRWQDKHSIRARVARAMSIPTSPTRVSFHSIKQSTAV


molecular target: T1, CRF1R receptor (anti-target); assay: cell-based or functional assay

| EC50 [nM] 0% HSA (cAMP, HTRF) [nM] | Emax (%) (100% = Sauvagine at 100 nM) | Binder |
| --- | --- | --- |
| > 100 | 8.4 | IVLSLD[dV]PTKLK([γGlu-Palmitoyl])KKLLKQERKRKEREKAEKAARILERV-NH2 (N-terminus assumed; SMILES CCCCCCCCCCCCCCCC(=O)N[C@@H](CCC(=O)NCCCC[C@H](NC(=O)[C@H](CC(C)C)NC(=O)[C@H](CCCCN)NC(=O)[C@@H](NC(=O)[C@@H]1CCCN1C(=O)[C@H](NC(=O)[C@H](CC(=O)O)NC(=O)[C@H](CC(C)C)NC(=O)[C@H](CO)NC(=O)[C@H](CC(C)C)NC(=O)[C@@H](NC(=O)[C@@H](N)[C@@H](C)CC)C(C)C)C(C)C)[C@@H](C)O)C(=O)N[C@@H](CCCCN)C(=O)N[C@@H](CCCCN)C(=O)N[C@@H](CC(C)C)C(=O)N[C@@H](CC(C)C)C(=O)N[C@@H](CCCCN)C(=O)N[C@@H](CCC(N)=O)C(=O)N[C@@H](CCC(=O)O)C(=O)N[C@@H](CCCNC(=N)N)C(=O)N[C@@H](CCCCN)C(=O)N[C@@H](CCCNC(=N)N)C(=O)N[C@@H](CCCCN)C(=O)N[C@@H](CCC(=O)O)C(=O)N[C@@H](CCCNC(=N)N)C(=O)N[C@@H](CCC(=O)O)C(=O)N[C@@H](CCCCN)C(=O)N[C@@H](C)C(=O)N[C@@H](CCC(=O)O)C(=O)N[C@@H](CCCCN)C(=O)N[C@@H](C)C(=O)N[C@@H](C)C(=O)N[C@@H](CCCNC(=N)N)C(=O)N[C@H](C(=O)N[C@@H](CC(C)C)C(=O)N[C@@H](CCC(=O)O)C(=O)N[C@@H](CCCNC(=N)N)C(=O)N[C@H](C(N)=O)C(C)C)[C@@H](C)CC)C(=O)O) [peptide of SEQ ID NO: 28] |
| > 100 | 0.6 | IVLSLD[dV]PTKLK([γGlu-Palmitoyl])KKLLKQERKRKERE[Aib]AEKNARILERV-NH2 (N-terminus assumed; SMILES CCCCCCCCCCCCCCCC(=O)N[C@@H](CCC(=O)NCCCC[C@H](NC(=O)[C@H](CC(C)C)NC(=O)[C@H](CCCCN)NC(=O)[C@@H](NC(=O)[C@@H]1CCCN1C(=O)[C@H](NC(=O)[C@H](CC(=O)O)NC(=O)[C@H](CC(C)C)NC(=O)[C@H](CO)NC(=O)[C@H](CC(C)C)NC(=O)[C@@H](NC(=O)[C@@H](N)[C@@H](C)CC)C(C)C)C(C)C)[C@@H](C)O)C(=O)N[C@@H](CCCCN)C(=O)N[C@@H](CCCCN)C(=O)N[C@@H](CC(C)C)C(=O)N[C@@H](CC(C)C)C(=O)N[C@@H](CCCCN)C(=O)N[C@@H](CCC(N)=O)C(=O)N[C@@H](CCC(=O)O)C(=O)N[C@@H](CCCNC(=N)N)C(=O)N[C@@H](CCCCN)C(=O)N[C@@H](CCCNC(=N)N)C(=O)N[C@@H](CCCCN)C(=O)N[C@@H](CCC(=O)O)C(=O)N[C@@H](CCCNC(=N)N)C(=O)N[C@@H](CCC(=O)O)C(=O)NC(C)(C)C(=O)N[C@@H](C)C(=O)N[C@@H](CCC(=O)O)C(=O)N[C@@H](CCCCN)C(=O)N[C@@H](CC(N)=O)C(=O)N[C@@H](C)C(=O)N[C@@H](CCCNC(=N)N)C(=O)N[C@H](C(=O)N[C@@H](CC(C)C)C(=O)N[C@@H](CCC(=O)O)C(=O)N[C@@H](CCCNC(=N)N)C(=O)N[C@H](C(N)=O)C(C)C)[C@@H](C)CC)C(=O)O) [peptide of SEQ ID NO: 26] |
| > 100 | 18.4 | IVLSLD[dV]PTKLK([γGlu-Palmitoyl])KKLLKQERKRKERE[Aib]AEKAARILERV-NH2 (N-terminus assumed; SMILES CCCCCCCCCCCCCCCC(=O)N[C@@H](CCC(=O)NCCCC[C@H](NC(=O)[C@H](CC(C)C)NC(=O)[C@H](CCCCN)NC(=O)[C@@H](NC(=O)[C@@H]1CCCN1C(=O)[C@H](NC(=O)[C@H](CC(=O)O)NC(=O)[C@H](CC(C)C)NC(=O)[C@H](CO)NC(=O)[C@H](CC(C)C)NC(=O)[C@@H](NC(=O)[C@@H](N)[C@@H](C)CC)C(C)C)C(C)C)[C@@H](C)O)C(=O)N[C@@H](CCCCN)C(=O)N[C@@H](CCCCN)C(=O)N[C@@H](CC(C)C)C(=O)N[C@@H](CC(C)C)C(=O)N[C@@H](CCCCN)C(=O)N[C@@H](CCC(N)=O)C(=O)N[C@@H](CCC(=O)O)C(=O)N[C@@H](CCCNC(=N)N)C(=O)N[C@@H](CCCCN)C(=O)N[C@@H](CCCNC(=N)N)C(=O)N[C@@H](CCCCN)C(=O)N[C@@H](CCC(=O)O)C(=O)N[C@@H](CCCNC(=N)N)C(=O)N[C@@H](CCC(=O)O)C(=O)NC(C)(C)C(=O)N[C@@H](C)C(=O)N[C@@H](CCC(=O)O)C(=O)N[C@@H](CCCCN)C(=O)N[C@@H](C)C(=O)N[C@@H](C)C(=O)N[C@@H](CCCNC(=N)N)C(=O)N[C@H](C(=O)N[C@@H](CC(C)C)C(=O)N[C@@H](CCC(=O)O)C(=O)N[C@@H](CCCNC(=N)N)C(=O)N[C@H](C(N)=O)C(C)C)[C@@H](C)CC)C(=O)O) [peptide of SEQ ID NO: 29] |
| > 100 | 34.2 | IVLSLD[dV]PTKLK([γGlu-Palmitoyl])KKLLKQERKRKEREQAEKNARILERV-NH2 (N-terminus assumed; SMILES CCCCCCCCCCCCCCCC(=O)N[C@@H](CCC(=O)NCCCC[C@H](NC(=O)[C@H](CC(C)C)NC(=O)[C@H](CCCCN)NC(=O)[C@@H](NC(=O)[C@@H]1CCCN1C(=O)[C@H](NC(=O)[C@H](CC(=O)O)NC(=O)[C@H](CC(C)C)NC(=O)[C@H](CO)NC(=O)[C@H](CC(C)C)NC(=O)[C@@H](NC(=O)[C@@H](N)[C@@H](C)CC)C(C)C)C(C)C)[C@@H](C)O)C(=O)N[C@@H](CCCCN)C(=O)N[C@@H](CCCCN)C(=O)N[C@@H](CC(C)C)C(=O)N[C@@H](CC(C)C)C(=O)N[C@@H](CCCCN)C(=O)N[C@@H](CCC(N)=O)C(=O)N[C@@H](CCC(=O)O)C(=O)N[C@@H](CCCNC(=N)N)C(=O)N[C@@H](CCCCN)C(=O)N[C@@H](CCCNC(=N)N)C(=O)N[C@@H](CCCCN)C(=O)N[C@@H](CCC(=O)O)C(=O)N[C@@H](CCCNC(=N)N)C(=O)N[C@@H](CCC(=O)O)C(=O)N[C@@H](CCC(N)=O)C(=O)N[C@@H](C)C(=O)N[C@@H](CCC(=O)O)C(=O)N[C@@H](CCCCN)C(=O)N[C@@H](CC(N)=O)C(=O)N[C@@H](C)C(=O)N[C@@H](CCCNC(=N)N)C(=O)N[C@H](C(=O)N[C@@H](CC(C)C)C(=O)N[C@@H](CCC(=O)O)C(=O)N[C@@H](CCCNC(=N)N)C(=O)N[C@H](C(N)=O)C(C)C)[C@@H](C)CC)C(=O)O) [peptide of SEQ ID NO: 27] |
| > 100 | 1.2 | IVLSLDVPIKLK([AEEA-AEEA-γGlu-C18 diacid])QILLKQERQK[Aib]QRQKAEKNKQILAQV-NH2 (N-terminus assumed; SMILES CC[C@H](C)[C@H](N)C(=O)N[C@H](C(=O)N[C@@H](CC(C)C)C(=O)N[C@@H](CO)C(=O)N[C@@H](CC(C)C)C(=O)N[C@@H](CC(=O)O)C(=O)N[C@H](C(=O)N1CCC[C@H]1C(=O)N[C@H](C(=O)N[C@@H](CCCCN)C(=O)N[C@@H](CC(C)C)C(=O)N[C@@H](CCCCNC(=O)COCCOCCNC(=O)COCCOCCNC(=O)CC[C@H](NC(=O)CCCCCCCCCCCCCCCCC(=O)O)C(=O)O)C(=O)N[C@@H](CCC(N)=O)C(=O)N[C@H](C(=O)N[C@@H](CC(C)C)C(=O)N[C@@H](CC(C)C)C(=O)N[C@@H](CCCCN)C(=O)N[C@@H](CCC(N)=O)C(=O)N[C@@H](CCC(=O)O)C(=O)N[C@@H](CCCNC(=N)N)C(=O)N[C@@H](CCC(N)=O)C(=O)N[C@@H](CCCCN)C(=O)NC(C)(C)C(=O)N[C@@H](CCC(N)=O)C(=O)N[C@@H](CCCNC(=N)N)C(=O)N[C@@H](CCC(N)=O)C(=O)N[C@@H](CCCCN)C(=O)N[C@@H](C)C(=O)N[C@@H](CCC(=O)O)C(=O)N[C@@H](CCCCN)C(=O)N[C@@H](CC(N)=O)C(=O)N[C@@H](CCCCN)C(=O)N[C@@H](CCC(N)=O)C(=O)N[C@H](C(=O)N[C@@H](CC(C)C)C(=O)N[C@@H](C)C(=O)N[C@@H](CCC(N)=O)C(=O)N[C@H](C(N)=O)C(C)C)[C@@H](C)CC)[C@@H](C)CC)[C@@H](C)CC)C(C)C)C(C)C) [peptide of SEQ ID NO: 22] |
| > 100 | 0.1 | IVLSLD[dV]PTKLK([γGlu-Palmitoyl])KKLLKQERKRKEREKAEKNARILERV-NH2 (N-terminus assumed; SMILES CCCCCCCCCCCCCCCC(=O)N[C@@H](CCC(=O)NCCCC[C@H](NC(=O)[C@H](CC(C)C)NC(=O)[C@H](CCCCN)NC(=O)[C@@H](NC(=O)[C@@H]1CCCN1C(=O)[C@H](NC(=O)[C@H](CC(=O)O)NC(=O)[C@H](CC(C)C)NC(=O)[C@H](CO)NC(=O)[C@H](CC(C)C)NC(=O)[C@@H](NC(=O)[C@@H](N)[C@@H](C)CC)C(C)C)C(C)C)[C@@H](C)O)C(=O)N[C@@H](CCCCN)C(=O)N[C@@H](CCCCN)C(=O)N[C@@H](CC(C)C)C(=O)N[C@@H](CC(C)C)C(=O)N[C@@H](CCCCN)C(=O)N[C@@H](CCC(N)=O)C(=O)N[C@@H](CCC(=O)O)C(=O)N[C@@H](CCCNC(=N)N)C(=O)N[C@@H](CCCCN)C(=O)N[C@@H](CCCNC(=N)N)C(=O)N[C@@H](CCCCN)C(=O)N[C@@H](CCC(=O)O)C(=O)N[C@@H](CCCNC(=N)N)C(=O)N[C@@H](CCC(=O)O)C(=O)N[C@@H](CCCCN)C(=O)N[C@@H](C)C(=O)N[C@@H](CCC(=O)O)C(=O)N[C@@H](CCCCN)C(=O)N[C@@H](CC(N)=O)C(=O)N[C@@H](C)C(=O)N[C@@H](CCCNC(=N)N)C(=O)N[C@H](C(=O)N[C@@H](CC(C)C)C(=O)N[C@@H](CCC(=O)O)C(=O)N[C@@H](CCCNC(=N)N)C(=O)N[C@H](C(N)=O)C(C)C)[C@@H](C)CC)C(=O)O) [peptide of SEQ ID NO: 25] |
